US20100260668A1 (published 2010)

The binders below were run against T1, VEGF (UniProt P15692-4 27-191) (assay: SPR (Biacore), DVD-Ig captured, VEGF in solution).
T1 construct: Bought reagent; also called vascular endothelial growth factor
T1 sequence (P15692 other isoform, or with tags, fused parts or gaps limits assumed): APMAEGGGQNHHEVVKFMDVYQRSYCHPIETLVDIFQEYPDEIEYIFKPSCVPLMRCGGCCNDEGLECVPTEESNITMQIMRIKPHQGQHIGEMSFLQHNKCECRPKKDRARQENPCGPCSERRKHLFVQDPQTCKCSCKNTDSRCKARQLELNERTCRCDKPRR

Kd [nM]	koff [s⁻¹]	kon [M⁻¹ s⁻¹]	Binder
0.917	0.000232	253000	DVD471 (bispecific antibody, human IgG1, kappa, L234A L235A, DVD-Ig; N-term; VD AB015 (DLL4), C-term; VD AB070 (VEGF); HC linker long, LC linker long; also called DVD471H; DVD471L) heavy: not shown light: DIQMTQSPSSLSASVGDRVTITCRASQDVSTAVAWYQQKPGKAPKLLIYSASFLYSGVPSRFSGSGSGTDFTLTISSLQPEDFATTYYCQQSYTGTVTFGQGTKVEIKRTVAAPSVFIFPPDIQMTQSPSSLSASVGDRVTITCRASQDVSTAVAWYQQKPGKAPKLLIYSASFLYSGVPSRFSGSGSGTDFTLTISSLQPEDFATYYCQQSYTTPPTFGQGTKVEIKRTVAAPSVFIFPPSDEQLKSGTASVVCLLNNFYPREAKVQWKVDNALQSGNSQESVTEQDSKDSTYSLSSTLTLSKADYEKHKVYACEVTHQGLSSPVTKSFNRGEC
0.963	0.000872	905000	DVD483 (bispecific antibody, human IgG1, kappa, DVD-Ig; N-term; VD AB015 (DLL4), C-term; VD AB070 (VEGF); HC linker short, LC linker long; also called DVD483H; DVD483L) heavy: not shown light: DIQMTQSPSSLSASVGDRVTITCRASQDVSTAVAWYQQKPGKAPKLLIYSASFLYSGVPSRFSGSGSGTDFTLTISSLQPEDFATTYYCQQSYTGTVTFGQGTKVEIKRTVAAPSVFIFPPDIQMTQSPSSLSASVGDRVTITCRASQDVSTAVAWYQQKPGKAPKLLIYSASFLYSGVPSRFSGSGSGTDFTLTISSLQPEDFATYYCQQSYTTPPTFGQGTKVEIKRTVAAPSVFIFPPSDEQLKSGTASVVCLLNNFYPREAKVQWKVDNALQSGNSQESVTEQDSKDSTYSLSSTLTLSKADYEKHKVYACEVTHQGLSSPVTKSFNRGEC
0.0499	7.6e-06	152000	DVD492 (bispecific antibody, human IgG1, kappa, DVD-Ig; N-term; VD AB071 (VEGF), C-term; VD AB072 (DLL4); HC linker short, LC linker short; also called DVD492H; DVD492L) heavy: not shown light: DIQMTQSPSSLSASVGDRVTITCRASQVIRRSLAWYQQKPGKAPKLLIYAASNLASGVPSRFSGSGSGTDFTLTISSLQPEDFATYYCQQSNTSPLTFGQGTKVEIKRTVAAPDIQMTQSSSYLSVSLGGRVTITCKASDHINNWLAWYQQKPGNAPRLLISGATSLETGVPSRFSGSGSGKDYTLSITSLQTEDVATYYCQQYWSIPLTFGAGTKLELKRTVAAPSVFIFPPSDEQLKSGTASVVCLLNNFYPREAKVQWKVDNALQSGNSQESVTEQDSKDSTYSLSSTLTLSKADYEKHKVYACEVTHQGLSSPVTKSFNRGEC
0.000941	1.52e-07	162000	DVD504 (bispecific antibody, human IgG1, kappa, DVD-Ig; N-term; VD AB071 (VEGF), C-term; VD AB072 (DLL4); HC linker long, LC linker short; also called DVD504H; DVD504L) heavy: not shown light: DIQMTQSPSSLSASVGDRVTITCRASQVIRRSLAWYQQKPGKAPKLLIYAASNLASGVPSRFSGSGSGTDFTLTISSLQPEDFATYYCQQSNTSPLTFGQGTKVEIKRTVAAPDIQMTQSSSYLSVSLGGRVTITCKASDHINNWLAWYQQKPGNAPRLLISGATSLETGVPSRFSGSGSGKDYTLSITSLQTEDVATYYCQQYWSIPLTFGAGTKLELKRTVAAPSVFIFPPSDEQLKSGTASVVCLLNNFYPREAKVQWKVDNALQSGNSQESVTEQDSKDSTYSLSSTLTLSKADYEKHKVYACEVTHQGLSSPVTKSFNRGEC
0.903	0.000208	230000	DVD449 (bispecific antibody, human IgG1, kappa, DVD-Ig; N-term; VD AB069 (DLL4), C-term; VD AB070 (VEGF); HC linker long, LC linker long; also called DVD449H; DVD449L) heavy: not shown light: DIVMTQSPDSLAVSLGERATISCRASESVDNYGISFMKWFQQKPGQPPKLLIYAASNQGSGVPDRFSGSGSGTDFTLTISSLQAEDVAVYYCQQSKEVPWTFGGGTKVEIKRTVAAPSVFIFPPDIQMTQSPSSLSASVGDRVTITCRASQDVSTAVAWYQQKPGKAPKLLIYSASFLYSGVPSRFSGSGSGTDFTLTISSLQPEDFATYYCQQSYTTPPTFGQGTKVEIKRTVAAPSVFIFPPSDEQLKSGTASVVCLLNNFYPREAKVQWKVDNALQSGNSQESVTEQDSKDSTYSLSSTLTLSKADYEKHKVYACEVTHQGLSSPVTKSFNRGEC
0.75	0.000202	269000	DVD461 (bispecific antibody, human IgG1, kappa, DVD-Ig; N-term; VD AB069 (DLL4), C-term; VD AB070 (VEGF); HC linker short, LC linker long; also called DVD461H; DVD461L) heavy: not shown light: DIVMTQSPDSLAVSLGERATISCRASESVDNYGISFMKWFQQKPGQPPKLLIYAASNQGSGVPDRFSGSGSGTDFTLTISSLQAEDVAVYYCQQSKEVPWTFGGGTKVEIKRTVAAPSVFIFPPDIQMTQSPSSLSASVGDRVTITCRASQDVSTAVAWYQQKPGKAPKLLIYSASFLYSGVPSRFSGSGSGTDFTLTISSLQPEDFATYYCQQSYTTPPTFGQGTKVEIKRTVAAPSVFIFPPSDEQLKSGTASVVCLLNNFYPREAKVQWKVDNALQSGNSQESVTEQDSKDSTYSLSSTLTLSKADYEKHKVYACEVTHQGLSSPVTKSFNRGEC
1.71	0.000267	157000	DVD443 (bispecific antibody, human IgG1, kappa, DVD-Ig; N-term; VD AB069 (DLL4), C-term; VD AB070 (VEGF); HC linker short, LC linker short; also called DVD443H; DVD443L) heavy: not shown light: DIVMTQSPDSLAVSLGERATISCRASESVDNYGISFMKWFQQKPGQPPKLLIYAASNQGSGVPDRFSGSGSGTDFTLTISSLQAEDVAVYYCQQSKEVPWTFGGGTKVEIKRTVAAPDIQMTQSPSSLSASVGDRVTITCRASQDVSTAVAWYQQKPGKAPKLLIYSASFLYSGVPSRFSGSGSGTDFTLTISSLQPEDFATYYCQQSYTTPPTFGQGTKVEIKRTVAAPSVFIFPPSDEQLKSGTASVVCLLNNFYPREAKVQWKVDNALQSGNSQESVTEQDSKDSTYSLSSTLTLSKADYEKHKVYACEVTHQGLSSPVTKSFNRGEC
